Results: paper PMC5618021

Tests used:
[1] = biological target: MERS-five-helix bundle (MERS-5HB) (MERS-CoV) (UniProt K0BRG7); assay: ELISA
[2] = biological target: MERS-HR2P (MERS-CoV); assay: BLI
[3] = biological target: MERS-HR2P (MERS-CoV); assay: ELISA

Row | Substance | EC50 [1] [nM] | Kd [2] [nM] | koff [2] [s⁻¹] | kon [2] [M⁻¹ s⁻¹] | EC50 [3] [nM]
1 | MERS-HR2P (peptide) | 31.8 |  |  |  | 
2 | MERS-five-helix bundle (MERS-5HB) (from UniProt K0BRG7) (designed binder) |  | 0.24 | 1.26e-05 | 52600 | 5.4
